How the values were obtained:
Fischer CDF rats = test: SU5416/hypoxia model of severe pulmonary hypertension, weekly echocardiography and hemodynamics; format: in vivo, rat
Procedure: FIGS. 5A and 5B. Human Cardiotrophin-1 (hCT1) improves RV adaptation to severe Pulmonary Hypertension (PH) in Fischer rats.
Given that CT-1 induces phenotypic characteristics associated with beneficial RV physiologic adaptive compensation, a prediction was made by the Applicants that CT-1 would enhance RV adaptation to increased afterload in a disease setting. This supposition was tested to examine whether CT-1 protein can improve the ability of the RV to functionally adapt and limit or reduce right heart failure that is associated with pulmonary arterial hypertension (PAH), a form of PH caused by abnormalities in the lung vasculature (FIGS. 5A and 5B). PAH has a highly tractable and reproducible rodent equivalent, the […]/hypoxia rat model, which recapitulates many key aspects of the disease including progressive right heart failure in the Fischer CDF™ rat strain, a feature that is not observed in the Sprague Dawley strain in the same model of PH. Use of this PH model offers a clear advantage in providing an accurate preclinical disease setting to test the utility of CT-1, rather than simply testing co-administration of CT-1 with general […] stimulants such as PE or ISO in vivo. […] Also, right heart failure drives symptoms and prognosis in many forms of PH, including in Group 2 PH caused by increases in left ventricular filling pressures, of which heart failure with preserved ejection fraction (HFpEF) is an important example which is increasingly recognized as one of the greatest therapeutic challenges in clinical cardiology today. PH was induced by administering a single subcutaneous injection of SU5416 (20 mg/kg) to Fischer CDF™ rats followed by exposure to chronic hypoxia (8-10% O2) for 3 weeks. After these 3 weeks, rats were recovered for 24 hours in normoxia before implantation of PBS filled (control) or hCT-1 filled (6 μg/kg/hr delivery) osmotic minipumps. Control rats were exposed to normoxic conditions throughout the study and only treated with PBS (FIG. 5A). Echocardiography analyses were conducted weekly and the following parameters were measured: Right Ventricle Posterior Wall thickness (RVPW), Ratio of Right Ventricle Internal Diameter to Left Ventricle Internal (RVID/LVID), Pulmonary Artery Acceleration Time (PAAT), Fractional Area Change (FAC), and Cardiac Output (CO). At 3 weeks (prior to pump implantation), there was already a marked and significant increase in the RVID/LVID ratio, indicative of developing RV failure in this model of severe PH. In PH animals receiving saline, there was a progressive increase in this ratio over the subsequent 3 weeks, associated with other evidence of progressive RV failure, such as worsening contractile function (Fractional Area Shortening) and reductions in cardiac output.

cardiomyocytes = tested on: cardiomyocytes
Procedure: FIG. 7B Quantitation of cell viability analysis as shown in (A). FIG. 7C Quantification of PI cell viability FACS analysis following a 24 hrs treatment of cardiomyocytes with H2O2 in the presence or absence of hCT1. Pre-treatment with PI3K inhibitor (LY294002, 50 μM) before H2O2 was also tested.
Cardiomyocytes were treated with control serum-free media or with H2O2 (300 μM, 1 hr) to induce cell death in the presence or absence of hCT1 (0.5 nM). After 24 hrs, cells were incubated with the cell viability marker Propidium Iodide (PI) (1 μg/mL) and analyzed by FACS (Ex: 535 nm, Em: 617 nm) for viable cells; i.e. cells inside the gated region of the side scatter (SS) versus PI plot (FIG. 7A). […] The PI3K pathway is a critical feature of physiological cardiac adaptive compensation and is a key protective feature distinguishing it from pathological adaptive compensation. Therefore, cardiomyocytes were pre-treated with a PI3K inhibitor (LY294002, 50 μM) before CT-1/H2O2 treatment.

P19 cells = test: P19 cardiac differentiation (cTnT immunofluorescence, beating clusters, immunoblot); format: cell-based, mouse
Procedure: FIG. 9A Schematic for cardiac differentiation of pluripotent P19 cells. FIG. 9B Immunofluorescence results for the cardiac-specific marker Troponin T (cTnT) in P19 cardiac cells at day 7 of differentiation in the presence of varying doses of hCT1 ranging from 0-500 ng/mL (0-25 nM). Quantification of expression of cTnT is shown on the graph. FIG. 9C Quantification of beating clusters in P19 cardiac cells at day 13-15 of differentiation in the presence of varying doses of hCT1. FIG. 9D Immunoblot for the cardiac markers cTnT and GATA4 in whole cell lysates from a P19 cardiac differentiation timecourse in the presence and absence of hCT1.
Protection during conditions of cardiac pathologies can be conferred not only by the activation of pro-survival/pro-angiogenic signaling pathways but also by inducing the differentiation of cardiogenic progenitor cells. […] To test the effect of CT1 on cardiomyocyte differentiation, undifferentiated cells were induced to undergo cardiac differentiation with 0.8% DMSO and aggregation. At day 0, P19 cells are plated onto non-adherent bacterial petri dishes in the presence of MEMα growth media with 0.8% DMSO (control) or in the presence of different doses of hCT1-containing MEMα media ranging from 0.5 nM (10 ng/mL) to 25 nM (500 ng/mL) with 0.8% DMSO. P19 cells are then allowed to aggregate for 4 days. Finally, aggregates are then transferred onto adherent tissue culture dishes in the same media (this time in the absence of DMSO) to allow for subsequent cardiac differentiation (FIG. 9A, adapted from Skerjanc et al. 1999; Trends in Cardiovascular Medicine, volume 9, pages 139-143). The cardiac specific marker Troponin T (cTnT) was used (by immunofluorescence) to identify differentiated cells.
Differentiation was also followed up to day 15 and the number of visually beating clusters was used to assess cardiac differentiation. […]

[1] = hCT-1 6 μg/kg/hr minipump from week 3
[2] = hCT-1 6 μg/kg/hr minipump from week 3, over 3 weeks

B1: hCT1: Recombinant human CT1 protein; 201 amino acid sequence, GenBank Accession Nos AAD12173 and AAA85229 (human) (protein, UniProt Q16619 1-201, looked up)
Cardiotrophin-1: MSRREGSLEDPQTDSSVSLLPHLEAKIRQTHSLAHLLTKYAEQLLQEYVQLQGDPFGLPSFSPPRLPVAGLSAPAPSHAGLPVHERLRLDAAALAALPPLLDAVCRRQAELNPRAPRLLRRLEDAARQARALGAAVEALLAALGAANRGPRAEPPAATASAASATGVFPAKVLGLRVCGLYREWLSRTEGDLGQLLPGGSA
RV afterload (right ventricular systolic pressure, RVSP) (Fischer CDF rats; [1]): without any alteration in the RV afterload
right atrial pressure (RAP) (Fischer CDF rats; [1]): significant decrease in right atrial pressure
RVID/LVID ratio (Fischer CDF rats; [2]): progressive improvement in the RVID/LVID ratio
cardiac output (Fischer CDF rats; [2]): improvements
contractile function (Fischer CDF rats; [2]): improvements in contractile function
viability improved vs. H2O2 (cardiomyocytes; H2O2 in the presence of hCT1 (FIG. 7C)): 154%
increase in viability upon pre-treatment (cardiomyocytes; hCT1 0.5 nM, 1 hour H2O2 300 μM, viability at 24 hours (FIG. 7B)): ~34%
GATA4 and cTnT expression (immunoblot) (P19 cells; 10 ng/mL (0.5 nM) hCT1, days 5 and 7): significantly inhibited GATA4 and cTnT expression
differentiation of cardiac cells (cTnT+/DAPI+) (P19 cells; day 7, any dose 0.5 nM to 25 nM): significantly inhibited the differentiation of cardiac cells
number of beating clusters (P19 cells; days 13, 14, and 15): no beating clusters were detected

Reference: patent US9962427B2, “Treatment of right ventricular dysfunction due to pressure overload” (OTTAWA HOSPITAL RESEARCH INSTITUTE, priority 2016, dated 2018)
